Experiment: Biodistribution in HEK-hsst2 tumor-bearing mice
Settings: female, Balb/c nude, mouse, in vivo, iv, 10 pmol, total radioactivity

C[C@@H](O)[C@H](NC(=O)[C@@H]1CSSC[C@H](NC(=O)[C@@H](Cc2ccccc2)NC(=O)CN2CCN(CC(=O)O)CCN(CC(=O)O)CCN(CC(=O)O)CC2)C(=O)N[C@@H](Cc2ccc(O)cc2)C(=O)N[C@H](Cc2c[nH]c3ccccc23)C(=O)N[C@@H](CCCCN)C(=O)N[C@@H]([C@@H](C)O)C(=O)N1)C(=O)O [^64Cu-DOTA-TATE, [^64Cu-DOTA, Tyr^3, Thr^8]octreotide, metal not drawn, reference compound]
tissue uptake at 1 h (Adrenal uptake): 4.7 ± 1.5 %ID/g | tissue uptake at 24 h (Adrenal uptake): 0.7 ± 0.3 %ID/g | tissue uptake at 1 h (Blood uptake): 0.7 ± 0.2 %ID/g | tissue uptake at 4 h (Blood uptake): 0.6 ± 0.1 %ID/g | tissue uptake at 24 h (Blood uptake): 0.5 ± 0.05 %ID/g | tissue uptake at 1 h (Bone uptake): 1.6 ± 0.5 %ID/g | tissue uptake at 24 h (Bone uptake): 0.8 ± 0.1 %ID/g | tissue uptake at 1 h (Heart uptake): 1.1 ± 0.1 %ID/g | tissue uptake at 4 h (Heart uptake): 1.2 ± 0.3 %ID/g | tissue uptake at 24 h (Heart uptake): 1.1 ± 0.2 %ID/g | tissue uptake at 24 h (Intestine uptake): 2 ± 0.3 %ID/g | tissue uptake at 1 h (Kidney uptake): 4.8 ± 0.5 %ID/g | tissue uptake at 4 h (Kidney uptake): 3 ± 0.6 %ID/g | tissue uptake at 1 h (Liver uptake): 6.1 ± 1.2 %ID/g | tissue uptake at 4 h (Liver uptake): 5.2 ± 1.6 %ID/g | tissue uptake at 24 h (Liver uptake): 4.6 ± 0.6 %ID/g | tissue uptake at 1 h (Lung uptake): 9.8 ± 2.6 %ID/g | tissue uptake at 4 h (Lung uptake): 5.4 ± 1.4 %ID/g | tissue uptake at 1 h (Muscle uptake): 0.3 ± 0.1 %ID/g | tissue uptake at 4 h (Muscle uptake): 0.2 ± 0.03 %ID/g | tissue uptake at 24 h (Muscle uptake): 0.3 ± 0.1 %ID/g | tissue uptake at 1 h (Pancreas uptake): 24.6 ± 2.4 %ID/g | tissue uptake at 4 h (Pancreas uptake): 4.4 ± 1 %ID/g | tissue uptake at 24 h (Pancreas uptake): 0.95 ± 0.1 %ID/g | tissue uptake at 4 h (Spleen uptake): 1.1 ± 0.4 %ID/g | tissue uptake at 24 h (Spleen uptake): 1.2 ± 0.1 %ID/g | tissue uptake at 1 h (Stomach uptake): 16.1 ± 1.7 %ID/g | tissue uptake at 4 h (Stomach uptake): 10.6 ± 1.6 %ID/g | tissue uptake at 24 h (Stomach uptake): 3.1 ± 0.3 %ID/g | tissue uptake at 1 h (Tumor uptake): 20.3 ± 2.5 %ID/g | tissue uptake at 4 h (Tumor uptake): 14.9 ± 1 %ID/g
